How the values were obtained:
[1] = biological target: HCoV-OC43 S protein (S1+S2 ECD) (Human coronavirus OC43 (HCoV-OC43)., UniProt P36334); test: ELISA
[2] = biological target: SARS-CoV-2 (2019-nCoV) S protein (S1+S2 ECD) (SARS-CoV-2 (2019-nCoV), UniProt P0DTC2); test: ELISA
[3] = biological target: HCoV-NL63 S protein (S1+S2 ECD) (HCoV-NL63, strain not named (stand-in: …, UniProt Q6Q1S2)); test: ELISA
[4] = biological target: HCoV-HKU1 (isolate N5) S protein (S1+S2 ECD) (Human coronavirus HKU1 (isolate N5) …, UniProt Q0ZME7); test: ELISA
[5] = biological target: HCoV-229E S protein (S1+S2 ECD) (HCoV-229E, strain not named (stand-in: …, UniProt P15423)); test: ELISA
[6] = biological target: MERS-CoV S protein (S1+S2 ECD) (MERS-CoV; strain  in paper, …, UniProt K0BRG7); test: ELISA
[7] = biological target: T1, SARS-CoV-2 fusion peptide K811[…]825 (SARS-CoV-2); test: ELISA
T1 chain: KPSKRSFIEDLLFNK

NL63 S on 293T cells = NL63 S on 293T cells (Human coronavirus NL63 (HCoV-NL63)., UniProt Q6Q1S2); test: flow cytometry on cells
[8] = biological target: SARS-CoV-2 Wuhan-Hu-1 S on 293T cells (SARS-CoV-2 Wuhan-Hu-1, UniProt P0DTC2); test: flow cytometry on cells
229E S on 293T cells = 229E S on 293T cells (Human coronavirus 229E (HCoV-229E)., UniProt P15423); test: flow cytometry on cells
[9] = biological target: T1, SARS-CoV-2 fusion peptide K811[…]825; test: crystal structure

Measured: binding result

Sequence of HCoV-HKU1 (isolate N5) S protein (S1+S2 ECD) (Q0ZME7 13-1295): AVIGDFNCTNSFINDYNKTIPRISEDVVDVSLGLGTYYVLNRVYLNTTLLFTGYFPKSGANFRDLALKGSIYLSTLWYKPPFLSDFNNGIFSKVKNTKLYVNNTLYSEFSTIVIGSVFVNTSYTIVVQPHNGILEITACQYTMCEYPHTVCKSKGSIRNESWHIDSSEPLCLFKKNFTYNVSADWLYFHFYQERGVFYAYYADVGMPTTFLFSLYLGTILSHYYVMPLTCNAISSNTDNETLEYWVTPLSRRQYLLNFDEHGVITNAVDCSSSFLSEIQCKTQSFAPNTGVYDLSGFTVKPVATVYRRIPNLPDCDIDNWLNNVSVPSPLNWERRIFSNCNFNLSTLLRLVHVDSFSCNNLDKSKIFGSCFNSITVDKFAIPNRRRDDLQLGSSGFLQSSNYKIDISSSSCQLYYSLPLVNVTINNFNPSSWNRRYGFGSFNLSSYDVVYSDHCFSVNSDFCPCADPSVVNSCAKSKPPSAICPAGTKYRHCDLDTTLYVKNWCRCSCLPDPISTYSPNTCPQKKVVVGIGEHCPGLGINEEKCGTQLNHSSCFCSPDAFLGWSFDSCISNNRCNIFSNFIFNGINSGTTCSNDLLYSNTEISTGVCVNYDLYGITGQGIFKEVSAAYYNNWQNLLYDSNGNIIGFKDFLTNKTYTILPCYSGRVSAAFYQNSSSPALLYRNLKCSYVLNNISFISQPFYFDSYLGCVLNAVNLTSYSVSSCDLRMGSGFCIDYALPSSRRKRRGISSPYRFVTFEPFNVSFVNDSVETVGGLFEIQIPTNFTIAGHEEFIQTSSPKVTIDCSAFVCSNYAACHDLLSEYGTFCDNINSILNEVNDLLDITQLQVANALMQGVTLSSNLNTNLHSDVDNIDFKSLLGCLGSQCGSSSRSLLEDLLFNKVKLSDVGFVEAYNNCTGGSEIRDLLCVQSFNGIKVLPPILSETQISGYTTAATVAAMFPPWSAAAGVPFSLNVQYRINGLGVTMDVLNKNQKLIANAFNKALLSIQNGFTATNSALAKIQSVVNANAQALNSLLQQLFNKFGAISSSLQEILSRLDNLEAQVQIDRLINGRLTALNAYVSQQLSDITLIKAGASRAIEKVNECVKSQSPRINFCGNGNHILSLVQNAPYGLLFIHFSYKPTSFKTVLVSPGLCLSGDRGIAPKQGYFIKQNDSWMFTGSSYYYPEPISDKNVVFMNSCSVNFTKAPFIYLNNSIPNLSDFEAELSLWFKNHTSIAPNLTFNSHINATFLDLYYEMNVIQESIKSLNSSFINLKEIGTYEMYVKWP
Sequence of HCoV-229E S protein (S1+S2 ECD) (HCoV-229E, strain not named (P15423 whole entry, looked up, the tested form may be a part): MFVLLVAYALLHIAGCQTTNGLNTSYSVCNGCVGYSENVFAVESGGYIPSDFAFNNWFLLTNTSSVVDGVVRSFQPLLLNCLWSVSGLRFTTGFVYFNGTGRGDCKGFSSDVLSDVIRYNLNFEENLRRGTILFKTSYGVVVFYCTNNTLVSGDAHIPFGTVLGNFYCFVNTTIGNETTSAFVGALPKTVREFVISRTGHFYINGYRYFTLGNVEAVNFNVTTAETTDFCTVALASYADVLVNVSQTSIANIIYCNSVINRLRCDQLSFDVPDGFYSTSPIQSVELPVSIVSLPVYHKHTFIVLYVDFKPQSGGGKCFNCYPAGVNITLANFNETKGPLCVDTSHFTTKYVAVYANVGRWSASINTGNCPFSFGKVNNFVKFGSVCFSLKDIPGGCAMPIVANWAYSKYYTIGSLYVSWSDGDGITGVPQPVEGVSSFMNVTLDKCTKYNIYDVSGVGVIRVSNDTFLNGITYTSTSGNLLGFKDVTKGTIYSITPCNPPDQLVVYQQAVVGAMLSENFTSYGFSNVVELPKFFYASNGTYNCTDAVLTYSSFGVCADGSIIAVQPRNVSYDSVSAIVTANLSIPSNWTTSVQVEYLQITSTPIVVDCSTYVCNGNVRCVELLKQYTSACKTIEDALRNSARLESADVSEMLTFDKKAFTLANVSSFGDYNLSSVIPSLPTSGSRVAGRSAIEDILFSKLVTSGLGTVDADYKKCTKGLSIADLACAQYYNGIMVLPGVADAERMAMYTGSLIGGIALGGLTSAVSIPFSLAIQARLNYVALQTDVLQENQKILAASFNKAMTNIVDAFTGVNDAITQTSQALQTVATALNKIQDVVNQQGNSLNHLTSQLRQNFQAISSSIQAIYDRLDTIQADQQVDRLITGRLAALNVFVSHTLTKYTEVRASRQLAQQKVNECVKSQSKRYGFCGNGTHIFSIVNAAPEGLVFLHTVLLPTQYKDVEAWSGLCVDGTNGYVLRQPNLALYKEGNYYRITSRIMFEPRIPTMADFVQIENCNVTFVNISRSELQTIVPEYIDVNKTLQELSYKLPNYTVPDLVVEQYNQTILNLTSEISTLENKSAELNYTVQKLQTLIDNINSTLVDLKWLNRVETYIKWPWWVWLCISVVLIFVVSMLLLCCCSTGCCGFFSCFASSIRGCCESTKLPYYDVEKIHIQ
Sequence of 229E S on 293T cells (P15423 16-1173): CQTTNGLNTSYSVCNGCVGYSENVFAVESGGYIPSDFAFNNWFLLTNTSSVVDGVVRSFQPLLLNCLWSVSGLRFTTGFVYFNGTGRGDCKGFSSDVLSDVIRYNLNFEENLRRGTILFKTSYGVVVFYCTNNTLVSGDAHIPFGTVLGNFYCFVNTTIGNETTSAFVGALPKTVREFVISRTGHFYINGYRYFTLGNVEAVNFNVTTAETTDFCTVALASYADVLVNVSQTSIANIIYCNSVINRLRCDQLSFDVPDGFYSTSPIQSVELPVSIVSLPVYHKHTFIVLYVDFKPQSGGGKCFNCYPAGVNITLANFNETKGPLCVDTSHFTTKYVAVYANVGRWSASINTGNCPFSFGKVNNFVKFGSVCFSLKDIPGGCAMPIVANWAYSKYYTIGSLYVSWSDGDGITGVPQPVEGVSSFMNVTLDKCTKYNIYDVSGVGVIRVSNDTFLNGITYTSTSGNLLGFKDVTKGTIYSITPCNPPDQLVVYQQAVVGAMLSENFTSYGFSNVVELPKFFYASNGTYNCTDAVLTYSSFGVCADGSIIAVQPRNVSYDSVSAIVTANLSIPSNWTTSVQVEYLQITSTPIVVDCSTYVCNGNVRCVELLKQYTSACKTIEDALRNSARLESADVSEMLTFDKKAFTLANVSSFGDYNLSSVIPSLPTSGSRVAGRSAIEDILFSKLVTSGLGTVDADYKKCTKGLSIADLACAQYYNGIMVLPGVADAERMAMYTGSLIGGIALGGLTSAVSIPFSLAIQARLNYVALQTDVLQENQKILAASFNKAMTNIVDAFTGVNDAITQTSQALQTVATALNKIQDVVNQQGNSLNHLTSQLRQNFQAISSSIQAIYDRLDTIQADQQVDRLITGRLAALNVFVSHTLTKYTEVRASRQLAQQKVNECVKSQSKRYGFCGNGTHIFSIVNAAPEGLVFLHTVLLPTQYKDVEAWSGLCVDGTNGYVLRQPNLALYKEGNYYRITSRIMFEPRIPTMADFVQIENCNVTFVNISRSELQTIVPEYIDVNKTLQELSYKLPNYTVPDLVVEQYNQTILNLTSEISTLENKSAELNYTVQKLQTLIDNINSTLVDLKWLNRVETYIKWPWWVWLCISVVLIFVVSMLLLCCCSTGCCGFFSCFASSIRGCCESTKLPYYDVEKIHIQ
Sequence of HCoV-OC43 S protein (S1+S2 ECD) (P36334 14-1297): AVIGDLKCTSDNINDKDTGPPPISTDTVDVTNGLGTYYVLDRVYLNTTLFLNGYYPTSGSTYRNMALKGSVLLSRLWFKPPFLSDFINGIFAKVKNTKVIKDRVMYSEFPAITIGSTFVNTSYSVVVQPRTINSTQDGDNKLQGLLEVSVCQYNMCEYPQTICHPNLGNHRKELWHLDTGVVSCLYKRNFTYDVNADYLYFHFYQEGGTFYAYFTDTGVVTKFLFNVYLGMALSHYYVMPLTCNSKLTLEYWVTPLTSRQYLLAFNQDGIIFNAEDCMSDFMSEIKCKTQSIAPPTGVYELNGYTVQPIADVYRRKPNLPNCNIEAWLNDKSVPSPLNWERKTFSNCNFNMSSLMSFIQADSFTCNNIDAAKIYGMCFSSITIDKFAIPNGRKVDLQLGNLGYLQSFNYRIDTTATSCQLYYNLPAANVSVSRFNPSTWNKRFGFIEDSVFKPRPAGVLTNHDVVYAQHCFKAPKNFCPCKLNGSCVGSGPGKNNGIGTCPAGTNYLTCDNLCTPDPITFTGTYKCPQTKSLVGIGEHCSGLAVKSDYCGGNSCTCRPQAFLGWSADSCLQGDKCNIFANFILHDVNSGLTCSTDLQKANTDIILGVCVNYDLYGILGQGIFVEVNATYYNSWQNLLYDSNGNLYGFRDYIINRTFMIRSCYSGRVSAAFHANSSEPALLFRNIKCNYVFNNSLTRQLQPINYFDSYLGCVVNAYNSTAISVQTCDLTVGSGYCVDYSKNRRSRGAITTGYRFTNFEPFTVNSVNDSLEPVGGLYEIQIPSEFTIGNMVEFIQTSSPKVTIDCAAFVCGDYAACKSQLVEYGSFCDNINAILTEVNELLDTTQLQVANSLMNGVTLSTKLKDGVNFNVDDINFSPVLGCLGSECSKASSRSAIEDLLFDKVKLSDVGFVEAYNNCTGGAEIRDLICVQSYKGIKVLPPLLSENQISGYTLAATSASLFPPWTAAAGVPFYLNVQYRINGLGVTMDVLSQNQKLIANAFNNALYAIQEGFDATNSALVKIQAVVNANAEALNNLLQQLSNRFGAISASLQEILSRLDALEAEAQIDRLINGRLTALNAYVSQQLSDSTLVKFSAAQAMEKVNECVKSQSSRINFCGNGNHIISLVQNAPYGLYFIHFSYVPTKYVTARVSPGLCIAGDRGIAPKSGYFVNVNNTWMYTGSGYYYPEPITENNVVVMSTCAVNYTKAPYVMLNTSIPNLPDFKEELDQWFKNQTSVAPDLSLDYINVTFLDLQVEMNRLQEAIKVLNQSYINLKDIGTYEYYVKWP

B1: C13C9 mAb (antibody, V domains shown)
VH: EVQLVQSGPEVKKPGTSARVSCKASGFTSKNTALQWVRQARGQPLEWMGWIDISNYITNYAQKFRGRLTITWDLSASMAYMELSSLRSEDTAVYYCAAVGKDDDVLTGGNKYFDHWGQGTLVTVSS
VL: SYELTQPPSVSVSPGQTARITCSGDALPKKYAYWYQQKSGQAPVLVIHEDDKRPSGIPGRFSASSSGTTATLTISGAQVEDEADYYCYSTDTNDNHAFGSGTKLTVL
not listed: [9]
binds: all other assays above

B2: C13C9 Fab (Fab, V domains shown)
VH: B1 VH
VL: B1 VL
binds: [9]

B3: VN01H1 mAb (antibody, V domains shown)
VH: EVQLVESGGGLVLPGGSLRLSCSASGFTFSDFSMHWVRQSPGKGLEYVSAITSSGSSTYYPDSVKGRFTISRDNSKNTLYLQMGSLRVEDTAVYWCVKNSDVFRFPHLYFDVWGRGTLVTVSS
VL: not shown
not listed: [9]
binds: all other assays above

B4: VN01H1 Fab (Fab, V domains shown)
VH: B3 VH
VL: not shown
binds: [9]

B5: C13B8 mAb (antibody, V domains shown)
VH: QVQLQESGPGLVQPSQTLTLTCTVSGDSISNEDYHWTWIRQHPGKGLEWMGYLQYSGNTNYNPSLKSRMTISVDTSKNQFSLRLNSVTAADTAVYFCATSIVLTGMSNKIQPFDYWGQGTLVTVSS
VL: SYELTQPPSVSVSPGQMARITCSGEALPKKYAYWYQQKGGQFPVLVIYKDTERPSGIPERFSGSSSGTIVTLTISGVQPEDEADYYCLSADTSGTWVFGGGTKLTVL
not listed: [9]
binds: all other assays above

B6: C13B8 Fab (Fab, V domains shown)
VH: B5 VH
VL: B5 VL
binds: [9]

B7: C77G12 mAb (antibody, V domains shown)
VH: EVQLVESGGGVVQPGRSLRISCAVSGFTFGSYAMHWVRQAPGKGLEWVGVMSSDGHNEYYADSVKGRFTISRDNSRNKLYLEMNNLRVDDTAVFYCARGSDYVDDSPPLHYWGQGTLVTVSS
VL: DIQLTQSPSSLSASIGDRVTITCRASQDIANKLAWFQQAPGKAPKSLIYAASRLQSGVPSQFSGSGSGTDFTLTIESLQAGDFATYFCQQYDSFPFTFGPGTKVDVK
not listed: [9]
binds: all other assays above

B8: C77G12 Fab (Fab, V domains shown)
VH: B7 VH
VL: B7 VL
binds: [9]

B9: VP12E7 mAb (antibody, V domains shown)
VH: QVQLVQSGGGVVQPGESLRLSCSGSGFTFNNYIMHWVRQAPGQGLDYVSGIGSDGRNTNYGDSVKGRFTISRDNSKDTLYLQMTSLRAEDTAFYYCVKGLDVLRFLDLSTPSGERLDAFDIWGQGTMVTVSS
VL: DIVMTQSPSFLSASVGDRVTITCRASQGISNYLAWYQQKPGKAPHLLIYAASTLQSGVPSRFSGSGSGTEFTLTISSLQPEDFATYYCQQLNSYPLFTFGPGTKVDIE
not listed: [9]
binds: all other assays above

B10: VP12E7 Fab (Fab, V domains shown)
VH: B9 VH
VL: B9 VL
binds: [9]
